Assay results taken from patent US6071709A, “Nerve growth factor/receptor complex” (The United States of America as represented by the …, priority 1992, dated 2000).

Legend:
gp140^prototrk = target: T1, gp140^prototrk (Rattus norvegicus, UniProt P35739); experiment: trk tyrosine phosphorylation in PC12 cells treated with NGF (32P labelling / Ptyr immunoblot of trk immunoprecipitates); assay type: cell-based
T1 construct: tyrosine phosphorylation in response to NGF addition to PC12 cells; endogenous in cells; host or cells: PC12 cells
Description: FIGS. 1A-C show the tyrosine phosphorylation of gp140trk in PC12 cells and trk-expressing NIH-3T3 cells treated with NGF. FIG. 1A, gp140trk immunoprecipitated from PC12 cells or trk-expressing 3T3 cells labeled with ^32 P-orthophosphate. Immunoprecipitates were prepared with rabbit anti-trk antisera 43-4 (D. Martin-Zanca et al., Mol Cell. Biol. 9:24-33 (1989)) from lysates prepared from 3T3 cells expressing the rat trk gene (trk 3T3) (lane 1) or PC12 cells treated for 5 min with 100 ng/ml NGF at 37° C. (lanes 2 and 4) or mock treated (lane 3). The immunoprecipitate shown in lane 2 was prepared in the presence of the peptide used to generate the rabbit 43-4 trk antibody (Martin-Zanca et al., (1989)). Shown in FIG. 1B is the phosphoamino acid analysis of trk proteins phosphorylated in vitro in p140trk immunoprecipitates from NGF treated PC12 cells in vivo from NGF treated (+) or untreated (-) PC12 cells, or in vivo from trk 3T3 cells. The positions of phosphoserine (S), phosphothreonine (T), and phosphotyrosine (Y) are indicated. FIG. 1C, trk proteins from trk 3T3 cells phosphorylated […]. In lanes 1-3, gp140trk immunoprecipitates were probed with P-tyr antibodies. In lanes 4-6, gp140trk proteins were phosphorylated in vitro in kinase assays. Cells were treated with suramin (lanes 2 and 5) or with 500 ng/ml NGF for 10 min following suramin treatment. The band migrating at 110 kDa is a glycosylation precursor of gp140^prototrk (Martin-Zanca et al., (1989)). The band at the bottom of the figure is IgG. Molecular weight markers in kDa are indicated.
rtrk 3T3 cells were generated by CaPO4 mediated transfection of a rat trk cDNA into NIH-3T3 cells. Rat trk cDNAs were obtained from an embryonic rat DRG cDNA library. The longest trk cDNA obtained (2.4 kbp) was missing approximately 150 bp of the coding region as compared to available mouse and human trk sequence. The missing bases plus minimal (~50 bp) 5' flanking non-coding sequences were replaced from mouse first coding exon sequences and the reconstructed gene was placed downstream of an MSV-LTR. PC12 cells or rtrk 3T3 cells (2×10^7) were labeled with ^32 P orthophosphate (1 mCi.ml in 4 ml) for 4 hr at 37° C. Cells were treated with NGF for the indicated times, washed, lysed in buffer containing 1% NP40, and the lysates immunoprecipitated with trk antibody 43-4 (D. R. Kaplan et al., Cell 61:125-133 (1990)) and electrophoresed on 7.5% SDS-PAGE gels as previously described (Kaplan et al., (1990)). For b, the phosphorylated trk bands were eluted from the gel and phosphoamino acid analysis performed as described (B. M. Sefton et al., J. Cell 24:165-174 (1981)). gp140trk protein from NGF treated PC12 cells was phosphorylated in vitro. For c, rtrk 3T3 cells were treated with 1 mM suramin in Dulbecco's Modified Eagle Medium (DMEM) for 2 h or mock treated. Following extensive washing of the cells with DMEM, NGF was added for the time indicated. Cells were lysed and the lysates were immunoprecipitated with trk antibody. Immunoprecipitates were either subjected to immunoblot analysis with the phosphotyrosine (Ptyr) monoclonal antibody 4G10 (Lanes 1-3), or were analyzed in kinase assays. (D. K. Morrison, et al. Cell 58:649-657 (1989) and Kaplan et al., (1990)). Similar amounts of trk protein were present in each lane.
FIGS. 2A-C. Time course, growth factor specificity, and dose response of trk tyrosine phosphorylation in PC12 cells. A, Time course of trk tyrosine phosphorylation. Cells (2×10^7) were treated with 50 ng/ml NGF at 37° C. B, Effects of growth and differentiation factors on trk tyrosine phosphorylation. Cells were treated with 100 ng/ml NGF, 100 ng/ml basic fibroblast growth factor (FGF) (Boehringer Mannheim Biochemicals), 100 ng/ml epidermal growth factor (EGF) (Upstate Biotechnology, Inc.), 100 nM insulin (Sigma), or 1 μg/ml phorbal 12-myristate […] (PMA) (Sigma) for 15 min. at 37° C. C, dose response of trk tyrosine phosphorylation. […]

p140^prototrk = experiment: NGF-dependent trk tyrosine phosphorylation in LA-N-5 neuroblastoma cells; assay type: cell-based, human; conditions: LA-N-5 cells, 100 ng/ml NGF for 5 min
Excerpt: FIGS. 4A-B show NGF-dependent tyrosine phosphorylation of gp140trk in the human neuroblastoma cell lines LA-N-5, SY5Y, and dorsal root ganglia from mouse embryos. FIG. 4A, gp140trk was immunoprecipitated from untreated (-) or NGF treated (+) LA-N-5 cells (K. H. Sonnenfeld and D. N. Ishii, J. Neurosci. Res. 8:375-391 (1982)), SY5Y cells (K. H. Sonnenfeld and D. N. Ishii, (1982)), NR18 cells (M. A. Bothwell et al., Cell 21:857-866 (1980)), or PC12 cells. Immunoprecipitates were probed with P-tyr antibodies. The differences in trk protein mobilities are due to differences in glycosylation. FIG. 4B, Tyrosine phosphorylation of gp140trk in DRGs from 13.5 day or 14.5 day embryonic mice. DRGs were maintained in 100 ng/ml NGF for ≥10 min prior to lysis and immunoprecipitation with trk antibodies. trk immunoprecipitates were probed with P-tyr antibody. Tyrosine phosphorylated gp140trk from NGF-treated (+) PC12 cells or untreated (-) PC12 cells is shown for comparison. Samples were normalized for cell protein. Molecular weight markers in kDa are indicated.
Cell lines were treated with 100 ng/ml NGF for 5 min and gp140trk immunoprecipitated as in FIG. 1. DRGs were prepared by dissection for 13.5 or 14.5 day mouse embryos. […] Lysates were immunoprecipitated with trk antibody and the trk proteins were analyzed by antiphosphotyrosine immunoblots. […]

T1 sequence (P35739 33-799): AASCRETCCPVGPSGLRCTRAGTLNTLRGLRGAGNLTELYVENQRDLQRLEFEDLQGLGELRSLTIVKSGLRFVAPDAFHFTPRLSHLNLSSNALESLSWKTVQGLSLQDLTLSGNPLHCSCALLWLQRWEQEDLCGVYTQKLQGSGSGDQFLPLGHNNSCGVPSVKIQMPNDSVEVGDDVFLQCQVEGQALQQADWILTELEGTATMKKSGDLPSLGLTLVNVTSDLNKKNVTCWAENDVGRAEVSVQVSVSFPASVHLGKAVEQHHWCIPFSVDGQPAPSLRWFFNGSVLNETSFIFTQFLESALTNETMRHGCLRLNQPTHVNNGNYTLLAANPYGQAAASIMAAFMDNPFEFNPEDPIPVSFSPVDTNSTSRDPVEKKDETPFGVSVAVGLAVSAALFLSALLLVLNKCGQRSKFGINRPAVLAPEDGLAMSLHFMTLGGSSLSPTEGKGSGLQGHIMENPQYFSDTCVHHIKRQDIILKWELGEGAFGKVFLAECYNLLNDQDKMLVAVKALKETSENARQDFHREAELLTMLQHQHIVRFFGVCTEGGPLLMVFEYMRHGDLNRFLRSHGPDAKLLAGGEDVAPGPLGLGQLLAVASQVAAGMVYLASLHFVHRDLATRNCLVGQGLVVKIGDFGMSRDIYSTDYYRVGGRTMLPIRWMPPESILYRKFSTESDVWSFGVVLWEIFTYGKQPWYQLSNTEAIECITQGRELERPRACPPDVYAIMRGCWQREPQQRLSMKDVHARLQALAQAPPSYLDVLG

Q: What does the source list for “NGF: neurotrophic polypeptide factor, nerve growth factor; ligand of trk proto-oncogene receptor”?
A: time to maximum levels of trk tyrosine phosphorylation (gp140^prototrk; 50 ng/ml NGF, 37° C.): five; stimulation of tyrosine phosphorylation of gp140^prototrk (gp140^prototrk; 32P-orthophosphate labelled, 50 ng/ml NGF for 5 min): 20 fold; half maximal tyrosine phosphorylation concentration (gp140^prototrk; 30 min at 37° C., dose response): 0.1 ng/mL; trk tyrosine phosphorylation after two days of treatment (gp140^prototrk; fully differentiated, two days of NGF): Residual phosphorylation was detected; p140^prototrk tyrosine phosphorylation (p140^prototrk): enhanced
